Assay results from patent US20240166754A1 (SYNTHEKINE, published 2024).
Numbering of substitutions follows the chain as printed.

B1: hIL12Rb1_VHH6 (VHH)
VHH: QVQLQESGGGSVQAGGSLRLSCAASRYTYTNNFMAWFRQAPGKEREGVAAIYTGDGYAYYFYSVKGRFTISQDNDENMLYLQMNSLKPEDTAMYYCAAMERRIGTRRMTENAEYKYWGQGTQVTVSS
notes: Camel VHH
B2: hIL12Rb1_VHH18 (VHH)
VHH: B1 VHH with Y62D, E76K, I103S, T105R
notes: Camel VHH
B3: hIL12Rb1_VHH4 (VHH)
VHH: QVQLQESGGGSVQAGGSLRLSCVASGYGYCGYDMSWYRQTPGKEREFVALITSDRIASYEDSVKGRFIISRDNAKNTGYLDMTRVTPDDTAIYYCKTSAAARENSWCRSRYRVASWGQGTQVTVSS
notes: Camel VHH
B4: hIL12Rb1_VHH5 (VHH)
VHH: QVQLQESGGGSVQAGGFLRLSCVASGYGYCGYDMSWYRQVPGKEREFVALITSDRSVSYEDSVKGRFSISRDNAKNTAYLEMNRLTPDDTAVYYCKTSTAARENNWCRSRYRIAYWGQGTQVTVSS
notes: Camel VHH
B5: hIL12Rb1_VHH13 (VHH)
VHH: QVQLQESGGGSVQAGGFLRLSCVASGYGYCGYDMSWYRQAPGKEREFVALITSERVISYEDSVKGRFSISRDNAENTGYLEMNRLTPDDTAIYYCKTSAAARESSWCRSRYRVASWGQGTQVTVSS
notes: Camel VHH
B6: hIL12Rb1_VHH3 (VHH)
VHH: QVQLQESGGGSVQAGGSLRLSCVASGYSYCGYDMMWYRQAPGKEREFVALITSDYSIRYEDSVEGRFSISRDNAKNTGYLLMSNLTPADTAIYYCKTSTAARESSWCRSRYRVASWGQGTQVTVSS
notes: Camel VHH
B7: hIL12Rb1_VHH8 (VHH)
VHH: B6 VHH
notes: Camel VHH
B8: hIL12Rb1_VHH9 (VHH)
VHH: B6 VHH with S105G
notes: Camel VHH

Each binder was assayed against T1, extracellular domain of human IL12RB1 (hIL12Rb1 ECD antigen) (human, UniProt P42701 24-545) (assay: periplasmic extract ELISA on antigen-coated plate after phage biopanning).
T1 construct: also called IL12Rβ1; CD212
Method: Upon completion of the biopanning of Example 3, three 96-well plates of individual phage clones were isolated in order to perform periplasmic extract ELISA (PE-ELISA) on IL12Rb1 coated plates to identify positive VHH binders that selectively bound IL12Rb1. A 96-well plate was coated with IL12Rb1 and PBS under the same conditions. Next, wells were blocked at 37° ° C. for 1 h. Then, 100 μl of extracted antibodies was added to each well and incubated for 1 h. Subsequently, 100 μl of anti-tag polyclonal antibody conjugated to HRP was added to each well and incubated at 37 °C for 1 h. Plates were developed with TMB substrate. The reaction was stopped by the addition of H2SO4. Absorbance at 450 nm was read on a microtiter plate reader. Antibodies with absorbance of the antigen-coated well at least threefold greater than PBS-coated control are VHHs that specifically bind to IL12Rb1. Positive clones were sequenced, and sequences analyzed to identify unique clonotypes.

Row | binding result | Binder
1 | binds | B1
2 | binds | B2
3 | binds | B3
4 | binds | B4
5 | binds | B5
6 | binds | B6
7 | binds | B7
8 | binds | B8
